# Experimental data reported in patent publication US7977317B2, “Compositions and methods for modulating blood-brain barrier transport” (Raptor Pharmaceutical Inc., priority 2001, dated 2011).
# Key:
# BBCEC monolayers = assay: Transcytosis across BBCEC monolayers (in vitro BBB model); type: cell-based, bovine
# Text: FIG. 10 assesses the ability of several agents to interfere with p97 transyctosis. FIG. 10a, transcytosis of I125-P97 was compared in the presence of cold p97 (5 micromolar), Lf (5 micromolar), and Tf (5 micromolar). […] FIG. 10c, RAP, a known poly-peptide inhibitor of the LDL-Receptor family was applied to the cells (25 micrograms/ml).
# FIG. 11 examines the accumulation and transcytosis of p97. FIG. 11a, of [^125I]-p97, [^125I]-BSA and [^125I]-holo-transferrin one hour after i.v. injection. The radioactivity in brain was compared between the three compounds. (n=3); FIG. 11b, Accumulation of p97 and transferrin into the mouse brain parenchyma. In situ brain perfusion was performed with human [^125I]-p97 or [^125I]-holo-transferrin at a final concentration of 10 nM via a catheter inserted in the right common carotid artery. The volume of distribution (VD) of [^125I]-proteins were obtained in the whole brain homogenate (white bars), in brain capillaries (solid bars) and in brain parenchyma (hatched bars) after isolation of the right hemisphere and capillary depletion. Results were obtained for p97 (n=10) and for holo-transferrin (n=6); FIG. 11c, Transcytosis of p97 across BBCEC monolayers. Transcytosis experiments were performed 37° C. (open circles) and 4° C. (closed circles) with BBCEC monolayers. [^125I]-p97 (1 mg/ml) was added to the upper side of the cell-covered filter. One representative experiment is shown (n=4); FIG. 11d, Preferential transport of p97 across the BBCEC monolayers. Apical-to-basal and basal-to-apical transport of [^125I]-p97 (25 nM) was measured for 2 hrs at 37° C. At the end of the experiment, [^125I]-p97 was assessed in the lower or upper chambers of each well by TCA precipitation (n=4).
# FIG. 13 illustrates the transcytosis and accumulation of p97 and transferrin in BBCEC monolayers. FIG. 13a, Transcytosis experiments were performed at 37° C. (solid bars) or 4° C. (white bars). [^125I]-p97 or bovine [^125I]-holo-transferrin (1 mg/ml) was added to the upper side of the cell-covered filter. At the end of the experiment, radiolabelled proteins were measured in the lower chamber of each well by TCA precipitation (n=4). Controls were also performed at 37° C. with denatured [^125I]-p97 or bovine [^125I]-holo-transferrin boiled for 30 min (grey bars) (n=2); FIG. 13b, Biospecific interaction analysis was performed with native or boiled p97 for the indicated times. MAb L235 (5 μg) was immobilized on a sensor chip (SM5) using standard procedures incorporating NHS, EDC and ethanolamine. Native and boiled p97 (5 to 30 min) diluted at 1 mg/ml in Ringer/Hepes was cooled and injected into the BIAcore. The surface plasmon resonance response obtained for native p97 and boiled p97 was plotted (in relative units (RU)) as a function of time; FIG. 13c, The accumulation of both proteins into BBEC cells were also measured. Briefly, after incubation at 37° C. (solid bars) or 4° C. (white bars) with either [^125I]-protein, cells were washed four times with cold PBS. Accumulation of both denatured proteins (grey bars) was also measured at 37° C. Filters were then removed, and the radioactivity associated with the cells was quantified (n=3).
# FIG. 14 illustrates the stability of p97 and integrity of the BBCEC monolayers following p97 transcytosis. FIG. 14a, Transcytosis experiments were performed at 37° C. and 4° C. by adding p97 (1 mg/ml) to the upper compartment. At the end of the experiment, 50 μl from each lower chamber was used for SDS-polyacrylamide gel electrophoresis. After electrophoresis, the gels were stained with Coomassie Blue. A standard curve was also made with known amounts of recombinant p97 (0-2 μg); FIG. 14b. The gels were dried and scanned to quantify the amount of intact p97 that crossed the BBCEC monolayers at 37° C. and 4° C. (n=3); FIG. 14c, Effect of p97 on sucrose permeability of BBCE cell monolayers co-cultured with astrocytes. […]
# LRP1B = assay: RT-PCR after p97 and RAP treatments in U-87 cells: LRP1B; type: cell-based, human; conditions: RT-PCR
# Description: FIG. 34. Effect of p97 and RAP treatments in U-87 cells. A. Cells (2×10^5) were plated onto six-multiwell microplates and grown at 37° C. under 5% CO2 with optimal culture medium supplemented with serum for 4 days. Treatment was performed in serum free medium for 72 hours. RNA isolation and RT-PCR were performed as described in the Examples. B. LRP/LRP1B was immunodetected in cells lysates as described in the Examples. […] (N=2 for p97 treatment), (n=1 for RAP treatment)
# FIG. 35. Effect of p97 and RAP treatments in U-87 cells (RT-PCR). Cells (2×10^5) were plated onto six-multiwell microplates and grown at 37° C. under 5% CO2 with optimal culture medium supplemented with serum for 4 days. Treatment was performed in serum free medium for 72 hours. RNA isolation and RT-PCR were performed as described in the Examples. The amplified PCR products were electrophoresed on a 2% agarose gel and visualized under ultraviolet light. (n=2 for p97), (n=1 for RAP)
# RNA extraction. Cells in six-wells plate or in 75 cm^2 plastic tissue culture flasks were grown at 37° C. under 5% CO2 with optimal culture medium to 80-90% confluence. Total cellular RNA was preserved in Trizol (Gibco BRL, Burlington, ON). The solution are frozen at −80° C. until extraction. The solution was defroze and mixed with 5:1 chloroform for 3 minutes at room temperature. The suspension was centrifugated at 12000 g at 4° C. […]
# LDL-R = LDL-R (Homo sapiens, UniProt P01130); conditions: Tables 1-3; cited from earlier work
# LRP = LRP (Homo sapiens, UniProt Q07954); conditions: Tables 1-3; cited from earlier work
# Megalin = Megalin (Homo sapiens, UniProt P98164); conditions: Tables 1-3; cited from earlier work
# VLDL-R = VLDL-R (Homo sapiens, UniProt P98155); conditions: Tables 1-3; cited from earlier work
# Chain of Megalin (P98164 26-4655, species assumed): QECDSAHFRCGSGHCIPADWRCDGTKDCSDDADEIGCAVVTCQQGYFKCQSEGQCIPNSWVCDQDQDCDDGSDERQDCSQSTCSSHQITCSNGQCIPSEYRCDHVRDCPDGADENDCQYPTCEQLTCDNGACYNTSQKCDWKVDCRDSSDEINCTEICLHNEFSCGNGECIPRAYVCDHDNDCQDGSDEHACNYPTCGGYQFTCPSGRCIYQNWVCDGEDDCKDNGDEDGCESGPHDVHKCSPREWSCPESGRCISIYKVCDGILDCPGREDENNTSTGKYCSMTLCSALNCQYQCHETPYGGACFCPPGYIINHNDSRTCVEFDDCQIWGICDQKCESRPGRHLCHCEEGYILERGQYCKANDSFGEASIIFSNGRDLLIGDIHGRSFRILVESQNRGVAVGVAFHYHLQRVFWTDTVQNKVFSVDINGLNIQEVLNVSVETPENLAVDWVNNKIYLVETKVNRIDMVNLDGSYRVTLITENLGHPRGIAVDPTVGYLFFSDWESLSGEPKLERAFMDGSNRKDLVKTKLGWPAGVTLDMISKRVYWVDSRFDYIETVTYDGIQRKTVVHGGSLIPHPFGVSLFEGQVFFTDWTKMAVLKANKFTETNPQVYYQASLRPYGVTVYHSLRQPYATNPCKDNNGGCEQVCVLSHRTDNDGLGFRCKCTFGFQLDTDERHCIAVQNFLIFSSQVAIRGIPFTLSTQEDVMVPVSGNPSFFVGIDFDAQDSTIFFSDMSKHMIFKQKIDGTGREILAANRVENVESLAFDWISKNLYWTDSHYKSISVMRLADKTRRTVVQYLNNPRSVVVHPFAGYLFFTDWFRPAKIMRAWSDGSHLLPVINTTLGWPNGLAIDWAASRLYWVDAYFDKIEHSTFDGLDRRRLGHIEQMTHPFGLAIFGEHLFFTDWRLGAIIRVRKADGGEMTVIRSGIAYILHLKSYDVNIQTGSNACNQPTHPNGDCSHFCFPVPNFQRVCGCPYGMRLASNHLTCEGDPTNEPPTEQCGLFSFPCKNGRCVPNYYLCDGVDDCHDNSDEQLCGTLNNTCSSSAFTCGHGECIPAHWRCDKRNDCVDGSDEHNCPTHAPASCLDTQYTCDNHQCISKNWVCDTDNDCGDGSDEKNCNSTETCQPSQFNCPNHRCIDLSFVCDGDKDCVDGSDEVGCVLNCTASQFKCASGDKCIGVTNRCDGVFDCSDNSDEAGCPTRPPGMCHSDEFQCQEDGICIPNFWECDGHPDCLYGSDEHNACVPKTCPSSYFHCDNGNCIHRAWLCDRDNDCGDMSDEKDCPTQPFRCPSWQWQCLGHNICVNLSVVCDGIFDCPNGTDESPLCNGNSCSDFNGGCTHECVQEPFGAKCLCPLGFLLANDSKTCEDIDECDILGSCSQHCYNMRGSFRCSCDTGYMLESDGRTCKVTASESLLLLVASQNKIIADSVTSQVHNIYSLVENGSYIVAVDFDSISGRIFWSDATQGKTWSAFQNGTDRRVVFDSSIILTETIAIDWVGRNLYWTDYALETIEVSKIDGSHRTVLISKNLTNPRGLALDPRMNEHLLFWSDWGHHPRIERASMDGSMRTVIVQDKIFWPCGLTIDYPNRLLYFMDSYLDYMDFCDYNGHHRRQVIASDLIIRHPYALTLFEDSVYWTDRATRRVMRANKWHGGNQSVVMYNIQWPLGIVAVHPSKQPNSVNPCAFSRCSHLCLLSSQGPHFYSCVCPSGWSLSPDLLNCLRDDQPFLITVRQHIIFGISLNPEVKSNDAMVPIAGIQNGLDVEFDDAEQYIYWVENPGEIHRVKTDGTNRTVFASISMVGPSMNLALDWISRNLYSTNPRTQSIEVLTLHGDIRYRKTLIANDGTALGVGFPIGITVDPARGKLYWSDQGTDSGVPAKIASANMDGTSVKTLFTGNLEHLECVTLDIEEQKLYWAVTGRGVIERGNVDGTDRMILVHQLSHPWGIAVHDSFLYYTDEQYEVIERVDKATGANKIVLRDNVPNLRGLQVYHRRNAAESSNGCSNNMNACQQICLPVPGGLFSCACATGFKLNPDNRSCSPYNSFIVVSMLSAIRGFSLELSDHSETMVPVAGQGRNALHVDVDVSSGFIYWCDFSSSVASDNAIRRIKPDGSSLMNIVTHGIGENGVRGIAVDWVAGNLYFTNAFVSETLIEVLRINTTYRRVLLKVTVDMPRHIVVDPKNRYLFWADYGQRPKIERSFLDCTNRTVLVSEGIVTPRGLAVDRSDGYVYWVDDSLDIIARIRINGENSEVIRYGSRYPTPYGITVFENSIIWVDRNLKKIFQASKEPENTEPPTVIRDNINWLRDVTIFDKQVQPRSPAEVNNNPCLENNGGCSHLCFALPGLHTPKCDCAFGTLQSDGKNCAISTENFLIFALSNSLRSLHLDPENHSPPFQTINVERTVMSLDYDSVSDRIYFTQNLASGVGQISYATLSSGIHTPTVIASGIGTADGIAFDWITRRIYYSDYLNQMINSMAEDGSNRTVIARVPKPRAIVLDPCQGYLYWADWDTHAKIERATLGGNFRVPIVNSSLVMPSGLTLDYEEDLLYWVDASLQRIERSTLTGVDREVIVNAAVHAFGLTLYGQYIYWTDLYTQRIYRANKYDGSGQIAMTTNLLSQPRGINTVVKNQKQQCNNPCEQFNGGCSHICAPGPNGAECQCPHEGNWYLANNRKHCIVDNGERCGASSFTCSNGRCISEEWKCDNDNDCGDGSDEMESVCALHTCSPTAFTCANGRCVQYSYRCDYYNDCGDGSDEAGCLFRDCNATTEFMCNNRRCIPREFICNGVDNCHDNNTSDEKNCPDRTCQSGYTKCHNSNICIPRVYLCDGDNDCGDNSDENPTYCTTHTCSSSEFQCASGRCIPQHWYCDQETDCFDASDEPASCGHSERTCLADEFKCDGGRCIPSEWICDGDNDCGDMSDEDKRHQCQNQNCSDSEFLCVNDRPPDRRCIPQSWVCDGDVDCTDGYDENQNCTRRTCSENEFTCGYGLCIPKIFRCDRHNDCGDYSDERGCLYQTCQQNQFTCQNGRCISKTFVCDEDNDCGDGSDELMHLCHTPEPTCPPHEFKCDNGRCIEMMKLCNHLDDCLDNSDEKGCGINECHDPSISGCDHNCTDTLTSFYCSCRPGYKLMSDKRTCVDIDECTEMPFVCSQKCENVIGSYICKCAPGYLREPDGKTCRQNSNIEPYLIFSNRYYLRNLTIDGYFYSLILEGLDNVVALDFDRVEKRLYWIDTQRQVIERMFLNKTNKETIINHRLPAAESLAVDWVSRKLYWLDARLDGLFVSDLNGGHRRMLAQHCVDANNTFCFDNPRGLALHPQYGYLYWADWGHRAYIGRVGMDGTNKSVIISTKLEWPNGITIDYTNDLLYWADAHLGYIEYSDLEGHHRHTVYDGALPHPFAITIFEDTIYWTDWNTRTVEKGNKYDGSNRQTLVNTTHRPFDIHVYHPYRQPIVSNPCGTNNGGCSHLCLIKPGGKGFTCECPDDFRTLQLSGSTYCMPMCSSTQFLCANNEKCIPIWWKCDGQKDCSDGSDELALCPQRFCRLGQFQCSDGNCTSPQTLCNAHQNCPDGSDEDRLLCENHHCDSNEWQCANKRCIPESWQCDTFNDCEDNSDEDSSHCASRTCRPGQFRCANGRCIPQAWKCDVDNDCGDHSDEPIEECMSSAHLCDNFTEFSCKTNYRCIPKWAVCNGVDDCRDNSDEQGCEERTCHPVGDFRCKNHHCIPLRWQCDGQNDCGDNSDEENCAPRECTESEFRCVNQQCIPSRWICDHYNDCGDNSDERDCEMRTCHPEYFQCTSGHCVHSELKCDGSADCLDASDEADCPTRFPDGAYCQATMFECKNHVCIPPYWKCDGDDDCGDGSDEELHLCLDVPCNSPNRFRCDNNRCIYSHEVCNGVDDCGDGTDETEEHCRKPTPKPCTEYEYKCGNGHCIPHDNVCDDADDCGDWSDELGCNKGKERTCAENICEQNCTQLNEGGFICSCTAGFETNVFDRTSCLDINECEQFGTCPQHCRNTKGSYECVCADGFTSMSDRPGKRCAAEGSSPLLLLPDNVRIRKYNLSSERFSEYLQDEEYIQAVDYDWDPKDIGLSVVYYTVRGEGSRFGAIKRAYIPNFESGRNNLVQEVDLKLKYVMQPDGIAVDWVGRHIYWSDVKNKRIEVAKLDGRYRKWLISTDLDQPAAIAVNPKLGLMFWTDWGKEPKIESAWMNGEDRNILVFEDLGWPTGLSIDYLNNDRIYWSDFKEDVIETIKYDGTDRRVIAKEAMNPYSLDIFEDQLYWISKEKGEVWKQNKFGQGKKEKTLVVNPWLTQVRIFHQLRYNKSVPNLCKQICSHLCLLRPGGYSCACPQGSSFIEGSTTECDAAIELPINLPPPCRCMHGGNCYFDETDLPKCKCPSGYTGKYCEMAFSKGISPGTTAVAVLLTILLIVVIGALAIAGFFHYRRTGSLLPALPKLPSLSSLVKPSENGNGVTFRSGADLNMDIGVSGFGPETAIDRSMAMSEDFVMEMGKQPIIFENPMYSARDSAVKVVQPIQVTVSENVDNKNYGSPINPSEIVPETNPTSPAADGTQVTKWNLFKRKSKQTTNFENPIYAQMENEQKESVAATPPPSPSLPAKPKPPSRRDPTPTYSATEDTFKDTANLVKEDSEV
substance,measurement,setting,value
"RAP: receptor-associated protein, a protein chaperone that regulates LRP; polypeptide inhibitor of the LDL-Receptor family",Effect on transcytosis of p97,BBCEC monolayers; RAP 25 micrograms/ml (FIG. 10c),significantly inhibited
same,Inhibition of p97 transcytosis by LRP ligands,"BBCEC monolayers; RAP (0.6 μM), BSA (5 μM), 2 h at 37° C. (FIG. 17A)",inhibition
same,Reduction of the initial rate of [125I]-p97 transport across BBCEC monolayers,BBCEC monolayers; recombinant RAP 25 μg/ml (FIG. 16b),more than 50%
same,Effect of RAP on the p97 effect on receptor expression,LRP1B,appears to antagonize the effect of p97
same,Binding to LDL-R,LDL-R,Yes
same,Binding to LRP,LRP,Yes
same,Binding to Megalin,Megalin,Yes
same,Binding to VLDL-R,VLDL-R,Yes
